Experiment: label from the status in PepcDB records

Sequence | protein production
MPLAIIPWFELPSASLGPFTLQSFGVLSALGILAAVQLSARGAKQLGKDPQVILDFAVVGVLAGVVVGHLAHLFFYHPEELQDPLRIFKFWEGLSSMGGLAGGMIAAAVYFRRKRVRFTAYADAFALGVAPGWGIARVGCFTVHDHPGRLTDFFLAVRFPDGPRHDLGLYEAILLLSLGAVLWALHRRDVLRGRLLPLLALVYGIGRFLLDFLRATDVSYADARHLGLTFAQYFAVALVAYAVWGFARRPSDEERVRVSTGVGRR | failed
MSNVRVLATDLAFPEGPVVMPDGSVVLVEIRAQQLTRVWPDGRKEVVAKVPGGPNGAALGPDGKMYICNNGGFGWFPSRGTMMPGAPAPHEYIGGSIQRVDLQSGEVETLFDKCGEHPLKGPNDLVFDKHGGLWFTDLGKRRARDMDVGAAYYIKPGMTEITEQVFGTLPLNGIGLSPDEATMYAAETPTGRLWAFDLSGPGEVKPRDVIYRGEKGKPICGLGGYQMFDSLAVEASGNVCVATLVSGCISVIAPDGTLVEQVPTGDRVTTNIAFGGPDLKTAYITLSGKGELIAMDWSRPGLPLNFLNK | failed
FNGWSWSLGGNIGFNKSKIGDLGFAPTDFGTLKNVRGYQGTSIGDHFGIANLFIAGEAPGLFFGYKTQGIIQPEDIVDGKVAYTAADGSTKYYSSSVANDLGAGNIKAVDMNEDGVVDEKDKTILGNPNPDFTYGFQTRIAWKDLSVSASFNGVHGNQILNTNIRYYTPSRQAGNLTQEAFRNIWTEENHSNLYPSATANVKNVVYDRYIEDGSYLRCSDITLNYTLPKSWMKKIGFQNIGVFASVKNAFVITNYSGYDPEINSFAFDGLRPGIDMNAFPSQRSYVFGLNVAF | failed
YGNVWPWKSYEHVVAIAGGIGIPPIKALIEDMQGHTSLDKLTVLYGARSPSDIVYRSEIETWKEEMDFRITVDKGDENWRGHVGVVTTLVPEIKEYNHGAAFVIGPPVMMKFSVKSLLDAGFAEDNIYLSLERRMECG | failed
MQAMTERLEAMLAQGTDNMLLRFTLGKTYAEHEQFDAALPHLRAALDFDPTYSVAWKWLGKTLQGQGDRAGARQAWESGLAAAQSRGDQQVVKELQVFLRRLAREDALEHHHHHH | not failed
MTIPKLSPSPESYPESLTFAELGLNAALRKALPTRLKHPTRVQQLAIPAILAGRDLLALSQTGSGKTFAFGLPLLQILWQQIAVQTTAKSVPAAKPLALVLVPTRELALQVSEALHALASQLSTSAPLNIQLLCGGVALEQQLADLSAKPQLVVATPGRLLDLCTQSHISLDAIKHLVLDEADRLLEMGFWPDMQKLMAMMPKRKQTLLFSATLPEALDSLAGKLLTNDPLKVEASTRNAVVGEIEEQLYLVNKGSKAQALIALLKQYQWPQVLVFISARDDADAIAKRLVKAGINAAALHGEKDQTVRSQTLADFKADRIQVLVATDLMARGIHVDALPVVINLDLPTSAPVYVHRIGRTARAGAKGLAISLVCHGEMPNLTAIRNLTARALPLVFLADFPVTDKPSEKIIDGAENKVIPKRPPRDKQANRRSINKHSVKAFKGKR | failed
AHHDEVLDIPKGVEVYEIEGPFFFGIANRFEEIMNTLGDHPDVRIIRMRHVPFMDSTGMHNLENLIKMSRKEGVSIVLSGVRKDVHEELATAGIVELLGEENVCADIQAALRQAQAIAQGA | failed
RRHYIDAFGTGPGFAAVASFYPGCFRIKPPGGRDYDLVGPDIAQPLLLLMGDADTETPAAECVDKLTPLKAAGAPVEWHVYPSTTHCWDCQQLDGRSKTDVRGNHVAYRYQPDVVADSERRLFAFLER | failed
MEAVTGYVKRKDLGRAVVQTDLGNPKAWEIRLTILTDEVLSENQKLATQKIDPSCAVDVSIGHGASDSPRGSSLAINEVRCECSSGISESDLETRGLAMIIDFVMRVASLERSVMNKRDLRFARVEKRFPKGKTKLKA | failed
MASSLTKDSVTPGTPGTEKTFFGHPRGLATLFMTEMWERFSYYGMRALLPLYLVAPGGLGLGAGTATAIYSVYLSLVYLLTMPGGWFGDRVWGPRKTVAIAGGVIMLGHLTLALPSSGTFYAGLGLVAIGSGLLKANISTMVGQLYDGPDDPRRDGGFTVFYMGINLGAFAAPLTIGTIGENVNWHLGFALAAVGMGLGVLQFLIGSRHLAPHSSAVPKPLSVEEKTSTLRKAAFWAALAVVFYAIVGFSGHYTLNWILVPLTLLGVIIPVLVLTNIKRDKSLDRAEQSKMSAYIWFFVAAAVFWMIYDQGGSTLSLFADSSADNSVFGWSFPVSWYQSVNPVIIMALAPVFATVWLALNRRGKEPSTVVKFCGGLVLVGASFFLFLAPLGIAEGGHKAAAMWLVAIYFVQTCGELMLSPVGLSVTTKMAPVKYASQMMGVWFLAVTAGDATTGLLSIAGVDLNKTGIVAAEATLAVVAGVAIWMYRKRVKELMGDVR | failed
MLLITPDELKSYSVFESVKTRPDELLKQDILEATADIILKVGHDFSDAEYIPLPETVRLALLKLSQFYALINGDESIIKGYTTEKIGDYSYTLGDGSPLQKPDVYALIKDYVKPADPDLEGIEAKVRMRSILEHHHHHH | not failed
MWKPLLIAVGLLSLVCGAIGVVLPVIPTTPFLLLSAFCFTRSSERLHNYLVSHRIFGEYISNYYNHAMTPQHKFRTLLTLWCGIILSCFLIGATIPWIILPLIATGVSIHIIRLKPRPEATPTASSPEADSGSEPHFADDHKA | failed
MASTDYHVDLTNCDREPIHIPGYIQPHGCLIACDNAMRMVLRHSENCGELLGLEGDLNGRTAEDVLGKKLVHDLRNALTVTGRTTRPAMLPAMETSDGRSFDISLHRYKSTTIIEFEPSGSDAQPLGTARKMVDRIREADSVESLISRTTRLVKATLGYDRVMIYRFQEDGAGKVVSEAKQPELESFLGQYFPASDIPQQARALYLKNTLRIISDASGTRIPVLPAVDVSGEPLDLSYAHLRSVSPIHCEYLRNMGVAASMSISVIVDGALWGLIACHHYSPRVLSMPVRIAAEMFGEFFSMHLQVLKQKRRLDTINHAHAALDRFLRLAAHHANIEELLVDSFQDFADLMPCDGVGLWVGNNWHGHGATPPHDAIPRLARFVASASEGRVWATHALSQAIPEAEIYAGTAAGMLAIPLSQVKSDYLLFFRKEIVQNLNWAGNPEKSYETGPMGDRLTPRKSFAIWKETVRLQAQPWSEADREIAEAARIALVEVAFHHSELMAGERERAEVRQRMLNEELNHRVKNVLAIIKSLVGNPSQEGKTLQEYVTALKGRIQALSFAHDQIIRGEGGGALRDLLEAELSPHRSPETTVKLEGPQITLDSRAFSVMALVLHELATNAAKYGALSQNGGQLHVRWDVNENRDCEISWRETLLTTLPAPSRAGFGTALISRSIPYDLGGRSTIRYLPNGLEAEILLPFRHVSSVSAAFETKTEAETLPQPRRYNREEPLKVLLVEDQMLIAMDVENMLEDNGIKAIETATSSAMAIEKLKTYLPDVAILDINLGSDTSIPVARELHRRGIPFLFATGYADGSMVPDEFGAVPVIRKPYDEDALMAGIGVLVGDTERV | failed
MPLLYILAIVVIVIILILLGIIAANYKKSGPQAALIVYGSGLGSKGVNKDSQGNRLKVVRGSGTFVLPIFQNARYLSLQSAAIDIKTEKVLSKDKIPVTVEATAMIKVGSTLQDIATAAEQFLGKRDEQRDAMADQVLRGHLRAIVGTMTVSELIEDRNKFSAEVQGQAGTDLSKMGLSIVSFVINDIRDDQNYIKALGAKEVARVQQEAAIAVANADKETRIQKAAADQDAQKAEALAATQVANAQKEKAISLAHYEQEQSIAAAEAKAQADQAQASADQAYAIQEAISKKETTEAEMQVELIKKQRETDLETQEVLRKAQENEANVVKAAEAAKAAQIAKAEADAREREVRAQAEAAAIEATAKATAKQREVTAMAEATAIEATGKAEAEAIRLKGLAEAEAIDKKAEAMQKMNDAAKLNMALEILPEVVASVSSNLQAVDSINIYGGEGSSKILGMSQESLKQGLDVLGTMGIDVPDLLNNFSSRGNSNETLEKVEKIEE | failed
TYNYYDHAASAGTGQYLNDVQVETIELPVDYDADFVIPVYGDSMEPKYHSGDYVFVKLSVELTDGDIGVFEYYGDAYIKQLLINDKGAFLHSLNQCGDYPDIPIDRDSDFRIIGEVMGSYRER | failed
ILELIAKGKPASKIYAEIALMYEERHSGLRCSMLELKGGKLLHAGAPSLPKSYCKAVHGLEYGPQVGSCGTSTYTGKRVLVENIATDPKWADLKYVALPYGMRSCWSEPIKSSSGKVLGAFGMYHDYPALPNEQESNDLTSAARLAGIVMEREQNQKRIQ | failed
MTLSKRLALLGAQSAITLAKPRGLGSSLGLLDRRPFPYRQFSELTKANGRRAFLVDTLALVRSLEAQGVPSKQAEAITSAITEVLNDSLENVSESFVSKAEMQKIEMIQDSNLSKFKSEVKSSQVTSTLVV | failed
